According to paper PMC11630628 (Molecular Plant, 2024):

Assays:
[1] = biological target: T1, MIK2 ectodomain (MIK2^LRR-MBP) (Arabidopsis thaliana, UniProt Q8VZG8); test: MST competitive binding analysis; details: MST competition (Figure 5F)
T1 construct: expressing only the ectodomain (residues 45–707); made in house; host or cells: E. coli strain BL21
T1 sequence (Q8VZG8 45-707): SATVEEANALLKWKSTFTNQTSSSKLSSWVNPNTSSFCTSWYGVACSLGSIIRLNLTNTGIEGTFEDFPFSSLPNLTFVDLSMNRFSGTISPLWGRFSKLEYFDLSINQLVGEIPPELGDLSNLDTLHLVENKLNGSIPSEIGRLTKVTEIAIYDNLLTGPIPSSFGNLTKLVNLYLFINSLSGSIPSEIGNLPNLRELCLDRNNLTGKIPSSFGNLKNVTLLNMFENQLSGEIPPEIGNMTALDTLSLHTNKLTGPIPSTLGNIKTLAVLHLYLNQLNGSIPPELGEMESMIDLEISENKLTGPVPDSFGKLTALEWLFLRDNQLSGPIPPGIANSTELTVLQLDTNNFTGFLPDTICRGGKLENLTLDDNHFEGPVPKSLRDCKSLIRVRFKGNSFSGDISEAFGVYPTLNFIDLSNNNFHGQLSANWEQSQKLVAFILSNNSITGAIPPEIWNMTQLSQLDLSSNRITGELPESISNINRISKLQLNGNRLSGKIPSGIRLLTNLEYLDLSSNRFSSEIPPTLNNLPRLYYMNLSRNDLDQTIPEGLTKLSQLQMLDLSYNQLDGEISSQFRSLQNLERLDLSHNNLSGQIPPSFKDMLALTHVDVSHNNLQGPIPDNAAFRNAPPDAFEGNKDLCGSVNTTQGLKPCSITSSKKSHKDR
Description: To express MIK2 protein in the soluble form, the truncated sequence of MIK2 (MIK2 ^LRR) expressing only the ectodomain (residues 45–707) was amplified from the gMIK2-Blunt subclone vector and inserted into the pET41 vector, fused with a 6× His-MBP tag. Then, the ectodomain of MIK2 (MIK2^LRR) in the absence of the putative N-terminal signal peptide was expressed in E. coli strain BL21 (TransGen). Cell cultures were grown to 0.6 optical density 600 and then induced with 0.3 mM isopropyl-β-D-thiogalactopyranoside for 30 h at 13°C. The mixture was then centrifuged at 12 000 rpm to separate the cells from the medium. The pellets were resuspended with the binding buffer (20 mM phosphate buffer, 500 mM NaCl, 50 mM imidazole, pH 7.4). The cells were sonicated on ice for 30 min in the lysis buffer (0.2 mg/mL lysozyme, 20 μg/mL DNAse, 1 mM MgCl2, 1 mM PMSF). […]
A Monolith NT.115 system (Nanotemper Technologies) was used to perform MST assays. […] The concentration of purified MIK2^LRR was measured with the BCA Protein Quantification Kit (Vazyme) and then diluted with ddH2O to 20 μM. […] MST results were analyzed using the Nanotemper analysis software (MO. Affinity) ([Jerabek-Willemsen et al., 2011]). […] The dissociation constant Ki was determined using the Ki Finder Tool available on the NanoTemper Technologies website (http://www.nanotempertechnologies.com/get-it-all/tools/ki-finder/).

[2] = system: 6× His-tagged ectodomains of MIK2; test: Competitive pull-down assay; format: binding, Arabidopsis thaliana; details: 50 nM MIK2 ectodomain, 250 nM biotinylated SCOOP10 or SCOOP12, 1 h, then increasing concentrations of the other peptide; anti-His Western blot, densitometry; three replicates
Description: Subsequently, 30 μL streptavidin magnetic beads (New England Biolabs) were added to each sample and incubated for 1 h at 4°C, followed by washing 5–6 times with 1.0 mL of interactive buffer. The proteins bound to the beads were then eluted using interactive buffer containing 5× SDS loading buffer, and western blot analysis was conducted as previously described ([Lan et al., 2023]). In the competitive binding assay, 50 nM purified MIK2 protein featuring a His-tag at its C-terminal was initially mixed with 250 nM of biotinylated SCOOP10. […] After thorough mixing, the beads underwent 5–6 washes to meticulously remove any residual proteins, and then the preparations were subjected to detailed analysis via western blotting to probe the interactions.

[3] = system: MIK2-GFP (pMIK2::MIK2-GFP/mik2-1 plants); test: MIK2-phosphorylation assay in detached leaves; format: cell-based, Arabidopsis thaliana; details: 5 μM peptide, 0, 1, 2, 4 h, pMIK2::MIK2-GFP/mik2-1 leaves; GFP IP, anti-pThr blot; vs mock
Description: Transgenic A. thaliana T3 homozygous plants expressing MIK2-GFP under the control of its native promoter were grown under long-day conditions (16 h light/8 h dark) for 4 weeks before sampling. […] Leaves were subjected to vacuum infiltration at room temperature for 30 min. Following treatment, the leaves were rapidly frozen in liquid nitrogen and ground into a fine powder. […] The samples were incubated for 30 min at 4°C with gentle agitation, followed by centrifugation at 14 000 rpm for 20 min at 4°C to remove debris. The supernatant was then incubated with anti-GFP agarose beads (Abcam, AE079) overnight at 4°C for immunoprecipitation (IP). […] The 30-μL eluted proteins were resolved on 7.5% SDS-PAGE gels and transferred onto polyvinylidene fluoride membranes. […] Abcam, AB6556), goat anti-rabbit immunoglobulin G (IgG) (H + L)-horseradish peroxidase (HRP) antibody (1:4000; Abcam, AB6721) and its phosphorylation status using anti-pThr antibodies (1:750, Cell Signaling, 9386), goat anti-mouse IgG (H + L)-HRP antibodies (1:2000; Abcam, AB6789), respectively.

[4] = system: Arabidopsis mik2 mutant detached rosette leaves; test: Detached leaf senescence assay, mik2 mutants; format: in vivo, Arabidopsis thaliana; details: SCOOP10 1 μM (Figures 3A–3C)
Description: A. thaliana ecotype Columbia-0 and mutants used in this study include mik2-1 (SALK_06269), mik2-2 (CS419958), proscoop10-1 (SALK_080439), and proscoop10-2 (SALK_027949), which were obtained from ABRC. The proscoop12 CRISPR-Cas9-generated mutants were kindly provided by Dr. Elia Stahi at the University of Lausanne, Switzerland ([Stahl et al., 2022]). Imbibed seeds were incubated at 4°C in a refrigerator for 2 days before sowing on the soil mix (3 parts commercial soil: 1 parts vermiculite) and grown under the long-day condition (16 h light/8 h dark) in a growth chamber with 150 μmol m^−2 s^−1 light intensity. For the senescence phenotyping of detached leaves, the fifth and sixth rosette leaves of 25-day-old plants were removed and placed in Petri dishes with the adaxial side facing up. The Petri dishes were sealed with parafilm to prevent water loss, and the leaves were incubated with deionized water. The application of exogenous peptides followed the previously established method ([Zhang et al., 2022a], [2022b]). […] All data including plant phenotypes and gene expression presented in this study were analyzed with GraphPad Prism 9, and at least three biological replicates were included in each experiment. Chl content, photochemical efficiency of PSII (Fv/Fm ratio), and ion leakage were determined as previously described ([Zhang et al., 2020], [2022b]; [Guo et al., 2022]).

PROSCOOP10 transcript = test: qPCR expression of PROSCOOP10 in detached leaves; format: cell-based, Arabidopsis thaliana
Description: Total RNA was isolated from Arabidopsis leaves with the RNAiso Plus (TAKARA) and reverse transcribed using the PrimeScript RT reagent Kit (TAKARA). qPCR reactions were implemented in an Applied Biosystems 7500 Real-Time PCR system with the SYBR Premix Ex Taq II (TAKARA). ACTIN was used as the reference gene for qPCR analyses. The primers used for qPCR are listed in Supplemental Table 2.

bik1 pbl1 double mutants = system: bik1 pbl1 double mutants; parameters: method as in Hou et al., 2021b; details: ref Hou et al., 2021b; cited from earlier work

B1: SERINE-RICH ENDOGENOUS PEPTIDE 10 (peptide)
peptide: ALPYHHELFLGRKRMNYYKPNSAIGTPSSTSDHAPGSNGRKLMSIYRPNGDIFTGPSGSGHGGGRTPAP
notes: processed from PROSCOOP10; synthesized by GenScript
- effect of competitor peptide on the MIK2 complex of the other peptide (MST) [1]: limited effect on the MIK2-SCOOP12 complex stability maintenance
- competition for MIK2 binding (pull-down signal) [2]: the SCOOP12-MIK2 complex resulted in a stable interaction with SCOOP10 application at the concentrations tested
- MIK2 kinase phosphorylation [3]: MIK2 phosphorylation decreased drastically over time compared to the mock controls
- senescence induction, WT compared with mik2 mutants [4]: More profound senescence was induced by SCOOP10 treatments in WT than in mik2 mutant plants
- PROSCOOP10 expression (PROSCOOP10 transcript; 1 μM peptide, detached leaves, vs mock, qPCR): reduced expression
- PROSCOOP10 expression, SCOOP10/SCOOP10-pretreated leaves (PROSCOOP10 transcript; reduction in SCOOP10/SCOOP10-pretreated leaves vs mock, 1 μM): more pronounced
- root growth inhibition in bik1 pbl1 (published) (bik1 pbl1 double mutants): only mild alleviation of the SCOOP10-induced root growth inhibition
